Test results reported in publication PMC7718890.

Molecular target: CarD WT;MTB RNAP (WT) (Mycobacterium …, UniProt P9WJG3;P9WGZ1;P9WGY9;P9WGY7;P9WGY5 1-162;1-347;1-1178;1-1316;1-110, |)
Assay: competition (fluorescence polarization)
Details: protein: recombinant;recombinant; tags: ;; copies: 1;2;1;1;1; blunt

B1: rrnAP3 native 61 bp (dsDNA)
DNA 1: GATGACCGAACCTGGTCTTGACTCCATTGCCGGATTTGTATTAGACTGGCAGGGTTGCCCC
DNA 2: GGGGCAACCCTGCCAGTCTAATACAAATCCGGCAATGGAGTCAAGACCAGGTTCGGTCATC
B1 showed a Ki of 8 ± 1 nM.
